Paper PMC7089611 (Febs Letters, 2012)
Values joined by “and” are separate entries in the source; they are usually repeats but may differ in a detail not shown here. Equal values may be shown once. Read-outs that look alike come from different tables or passages of the source.

Legend:
AUC [1] = target: the molecule itself; experiment: AUC
AUC [2] = target: the molecule itself; experiment: AUC; remark: listed apart in the source
AUC [3] = target: the molecule itself; experiment: AUC; remark: listed apart in the source
[4] = type: physicochemical; settings: CD at 220 nm, protein 7 μM, 50 mM Tris–HCl pH 7.5, 150 mM NaCl, 0.1% β‐mercaptoethanol
[5] = Secondary structural content by CD spectroscopy; type: physicochemical; settings: 25 °C, protein 5 μM, 50 mM Tris–HCl pH 7.5, 150 mM NaCl, 0.1% β‐mercaptoethanol, CDSSTR

Molecule | Kd (AUC [1]) [µM] | stoichiometry N (AUC [1]) | other results
HCoV‐229E nucleocapsid (N) protein C‐terminal domain truncation N245–370 (domain or fragment) QKPRWKRQPNDDVTSNVTQCFGPRDLDHNFGSAGVVANGVKAKGYPQFAELVPSTAAMLFDSHIVSKESGNTVVLTFTTRVTVPKDHPHLGKFLEELNAFTREMQQHPLLNPSALEFNPSQTSPAT | 177 | 2 and 4 | 
HCoV‐229E nucleocapsid (N) protein C‐terminal domain truncation N245–382 (domain or fragment) QKPRWKRQPNDDVTSNVTQCFGPRDLDHNFGSAGVVANGVKAKGYPQFAELVPSTAAMLFDSHIVSKESGNTVVLTFTTRVTVPKDHPHLGKFLEELNAFTREMQQHPLLNPSALEFNPSQTSPATAEPVRDEVSIET | 3.83 |  | 
HCoV‐229E nucleocapsid (N) protein C‐terminal domain truncation N245–376 (domain or fragment) QKPRWKRQPNDDVTSNVTQCFGPRDLDHNFGSAGVVANGVKAKGYPQFAELVPSTAAMLFDSHIVSKESGNTVVLTFTTRVTVPKDHPHLGKFLEELNAFTREMQQHPLLNPSALEFNPSQTSPATAEPVRD | 159 | 4 and 2 | 
HCoV‐229E nucleocapsid (N) protein C‐terminal domain N245–389 (domain or fragment) QKPRWKRQPNDDVTSNVTQCFGPRDLDHNFGSAGVVANGVKAKGYPQFAELVPSTAAMLFDSHIVSKESGNTVVLTFTTRVTVPKDHPHLGKFLEELNAFTREMQQHPLLNPSALEFNPSQTSPATAEPVRDEVSIETDIIDEVN | 3.5 |  | Kd (AUC [2]): ~6.1 µM; Kd (AUC [3]): ~9.7 µM
HCoV‐229E nucleocapsid (N) protein C‐terminal domain truncation N245–350 (domain or fragment) QKPRWKRQPNDDVTSNVTQCFGPRDLDHNFGSAGVVANGVKAKGYPQFAELVPSTAAMLFDSHIVSKESGNTVVLTFTTRVTVPKDHPHLGKFLEELNAFTREMQQ | 256 | 2 and 4 | 
N245–350: truncated C‐terminal domain of the HCoV‐229E N protein, dimeric C‐terminal structural domain (protein, left off: His6, C-terminal, state not stated) QKPRWKRQPNDDVTSNVTQCFGPRDLDHNFGSAGVVANGVKAKGYPQFAELVPSTAAMLFDSHIVSKESGNTVVLTFTTRVTVPKDHPHLGKFLEELNAFTREMQQ |  |  | melting temperature (Tm) [4]: 35.5 °C; Disordered (random coil) content [5]: ~15%; Sheet content [5]: ~22%; Turn content [5]: ~12%
